Assay results as given in patent US20260347491 (published 2026).
Read-outs that look alike come from different tables or passages of the source.

B1: HER2xHER2x4-1BB-2 (both HER2 arms) (antibody)
chain 1: not shown
chain 2: not shown
chain 3: EVQLVESGGGLVQPGGSLRLSCAASGFTFTDYTMDWVRQAPGKGLEWVADVNPNSGGSIYNQRFKGRFTLSVDRSKNTLYLQMNSLRAEDTAVYYCARNLGPSFYFDYWGQGTLVTVSS
chain 4: DIQMTQSPSSLSASVGDRVTITCKASQDVSIGVAWYQQKPGKAPKLLIYSASYRYTGVPSRFSGSGSGTDFTLTISSLQPEDFATYYCQQYYIYPYTFGQGTKVEIK
B2: HER2xHER2x4-1BB-1 (both HER2 arms) (antibody)
chain 1: not shown
chain 2: DIQMTQSPSSLSASVGDRVTITCRASQSVQGAVAWYQQKPGKAPKLLIYSASFLYSGVPSRFSGSRSGTDFTLTISSLQPEDFATYYCQQHSTTPPTFGQGTKVEIK
chain 3: B1 chain 3
chain 4: B1 chain 4
B3: HER2xHER2x4-1BB-1 (full) (antibody)
chain 1: not shown
chain 2: DIQMTQSPSSLSASVGDRVTITCRASQSVQGAVAWYQQKPGKAPKLLIYSASFLYSGVPSRFSGSRSGTDFTLTISSLQPEDFATYYCQQHSTTPPTFGQGTKVEIKRTVAAPSVFIFPPSDEQLKSGRASVVCLLNNFYPREAKVQWKVDNALQSGNSQESVTEQDSKDSTYSLSSRLQLSKADYEKHKVYACEVTHQGLSSPVTKSFNRGEC
chain 3: not shown
chain 4: DIQMTQSPSSLSASVGDRVTITCKASQDVSIGVAWYQQKPGKAPKLLIYSASYRYTGVPSRFSGSGSGTDFTLTISSLQPEDFATYYCQQYYIYPYTFGQGTKVEIKRTVAAPSVFIFPPSDEELKSGTASVQCLLNNFYPREAKVQWKVDNALQSGNSQESVTEQDSKDSTYSLSSELTLSKADYEKHKVYACEVTHQGLSSPVTKSFNRGEC
B4: Pertuzumab (antibody, V domains shown)
VH: B1 chain 3
VL: B1 chain 4

Experiments:
human HER2 [1] = biological target: T1, human HER2 (human, UniProt P04626); experiment: FACS
human HER2 [2] = biological target: T1, human HER2; experiment: FACS; remark: listed apart in the source
human CD32b (FcgRIIb) = biological target: T2, human CD32b (FcgRIIb) (human, UniProt P31994); experiment: FACS, CHOS-hCD32b cells
T2 chain: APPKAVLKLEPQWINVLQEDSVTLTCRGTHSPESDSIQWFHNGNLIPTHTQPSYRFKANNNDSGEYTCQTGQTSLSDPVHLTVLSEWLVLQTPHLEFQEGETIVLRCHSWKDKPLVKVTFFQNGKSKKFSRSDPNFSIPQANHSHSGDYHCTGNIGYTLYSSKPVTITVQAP

human 4-1BB (CD137) = human 4-1BB (CD137) (human, UniProt Q07011); experiment: FACS
Chain of human 4-1BB (CD137) (Q07011 24-186): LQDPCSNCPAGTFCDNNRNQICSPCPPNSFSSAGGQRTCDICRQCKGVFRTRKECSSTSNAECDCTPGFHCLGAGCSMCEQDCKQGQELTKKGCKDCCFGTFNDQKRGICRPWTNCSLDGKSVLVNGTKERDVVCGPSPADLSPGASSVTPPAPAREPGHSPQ

Row | Binder | EC50 (human HER2 [1]) [nM] | EC50 (human HER2 [2]) [nM] | EC50 (human CD32b (FcgRIIb)) [nM] | binding result (human 4-1BB (CD137))
1 | B1 | 2.88 | 1.81 |  | 
2 | B2 | 2.65 | 1.82 |  | 
3 | B3 |  |  | 1.06 | 
4 | B4 |  |  |  | no binding
